# B1: anti-HER3 Antibody A (antibody, human IgG1, kappa, V domains shown)
# VH: EVQLVESGGGLVKPGGSLRLSCAASGFSLDTYTMIWVRQAPGKGLEWVGIIYVTYNTYYANWAKGRFTISRDDSKNTLYLQMNSLKTEDTAVYYCTRWGDQNGLDIWGQGTLVTVSS
# VL: DIQMTQSPSSLSASVGDRVTITCQSSQRVYGNKNLAWYQQKPGKAPKLLIYFARTLASGVPSRFSGSGSGTDFTLTISSLQPEDFATYYCQGTYYGTNWYVGFGGGTKVEIKR
# notes: IgG type; human IgG1 Fc with C-terminal lysine deletion is stated only in embodiment language
# Assays:
# [1] = molecular target: T1, human HER3 ECD as shown in SEQ ID NO: 23 (human, UniProt P21860 20-643); experiment: SPR (Biacore), antibody captured on Protein A, soluble HER3-ECD as analyte
# T1 construct: also called soluble HER3-ECD
# T1 sequence (P21860 other isoform, or with tags, fused parts or gaps, form in doubt): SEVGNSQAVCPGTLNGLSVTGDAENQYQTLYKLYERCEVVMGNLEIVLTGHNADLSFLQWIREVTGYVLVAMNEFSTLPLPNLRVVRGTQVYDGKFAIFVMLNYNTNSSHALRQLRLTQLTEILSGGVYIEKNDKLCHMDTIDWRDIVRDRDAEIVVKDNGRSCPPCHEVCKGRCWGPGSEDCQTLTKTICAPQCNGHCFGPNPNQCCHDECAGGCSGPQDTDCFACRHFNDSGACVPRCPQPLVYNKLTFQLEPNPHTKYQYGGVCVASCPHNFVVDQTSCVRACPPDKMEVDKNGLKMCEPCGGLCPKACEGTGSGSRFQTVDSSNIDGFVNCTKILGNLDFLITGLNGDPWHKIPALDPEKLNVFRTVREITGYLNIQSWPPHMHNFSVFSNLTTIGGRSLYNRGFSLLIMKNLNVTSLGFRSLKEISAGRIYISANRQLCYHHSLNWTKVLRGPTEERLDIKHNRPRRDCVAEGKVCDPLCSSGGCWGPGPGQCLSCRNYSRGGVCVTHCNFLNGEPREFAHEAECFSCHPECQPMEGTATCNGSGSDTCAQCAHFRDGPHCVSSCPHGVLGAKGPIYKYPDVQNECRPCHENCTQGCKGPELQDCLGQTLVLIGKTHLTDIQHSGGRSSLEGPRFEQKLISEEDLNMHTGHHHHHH
# Rhesus mature HER3-ECD [2] = molecular target: T2, Rhesus mature HER3-ECD (rhesus monkey, UniProt H9ERZ8 20-643); experiment: as above
# T2 construct: extracellular domain; Bought protein; also called Rhesus HER3-ECD; cynomolgus monkey HER3-ECD
# T2 sequence (H9ERZ8 entry or part of it): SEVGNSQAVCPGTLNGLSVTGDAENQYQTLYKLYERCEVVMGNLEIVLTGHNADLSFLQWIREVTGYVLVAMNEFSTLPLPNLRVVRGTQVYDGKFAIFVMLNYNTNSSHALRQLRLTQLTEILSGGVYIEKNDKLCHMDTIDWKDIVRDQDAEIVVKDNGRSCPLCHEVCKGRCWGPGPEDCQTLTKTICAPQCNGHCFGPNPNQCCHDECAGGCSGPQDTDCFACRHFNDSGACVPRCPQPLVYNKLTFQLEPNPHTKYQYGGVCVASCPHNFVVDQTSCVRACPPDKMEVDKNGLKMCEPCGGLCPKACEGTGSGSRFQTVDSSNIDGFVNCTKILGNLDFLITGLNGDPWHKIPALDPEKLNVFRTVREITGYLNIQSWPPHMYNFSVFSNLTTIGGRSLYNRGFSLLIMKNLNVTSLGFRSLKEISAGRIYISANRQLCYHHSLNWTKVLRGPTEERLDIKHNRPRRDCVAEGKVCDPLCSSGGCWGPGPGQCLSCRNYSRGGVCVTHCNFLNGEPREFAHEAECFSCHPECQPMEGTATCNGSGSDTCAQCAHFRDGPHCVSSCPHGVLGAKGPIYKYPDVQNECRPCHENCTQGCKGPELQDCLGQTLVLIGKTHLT
# [3] = molecular target: T3, mouse mature HER3 ECD as shown in SEQ ID NO: 24 (mouse, UniProt Q61526 20-641); experiment: as above
# T3 construct: also called mouse HER3 ECD; mouse soluble HER3-ECD
# T3 sequence (Q61526 20-641 limits assumed): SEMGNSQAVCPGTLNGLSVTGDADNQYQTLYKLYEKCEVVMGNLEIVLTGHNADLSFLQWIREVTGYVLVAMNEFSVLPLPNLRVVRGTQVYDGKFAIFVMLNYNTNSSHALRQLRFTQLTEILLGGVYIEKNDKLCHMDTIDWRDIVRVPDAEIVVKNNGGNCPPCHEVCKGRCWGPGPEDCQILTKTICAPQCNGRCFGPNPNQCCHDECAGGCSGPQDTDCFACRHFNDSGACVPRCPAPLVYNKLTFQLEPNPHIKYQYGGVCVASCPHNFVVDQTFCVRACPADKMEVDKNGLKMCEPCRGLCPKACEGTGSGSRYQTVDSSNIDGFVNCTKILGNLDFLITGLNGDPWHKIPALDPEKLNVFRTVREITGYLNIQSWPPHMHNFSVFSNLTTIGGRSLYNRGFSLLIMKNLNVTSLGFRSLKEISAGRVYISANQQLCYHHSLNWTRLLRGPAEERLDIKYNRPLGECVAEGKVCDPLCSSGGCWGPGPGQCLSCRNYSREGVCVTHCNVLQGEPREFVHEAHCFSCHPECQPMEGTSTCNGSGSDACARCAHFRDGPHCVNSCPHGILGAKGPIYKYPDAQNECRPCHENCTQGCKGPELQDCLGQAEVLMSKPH
# [4] = molecular target: T1, human HER3 ECD as shown in SEQ ID NO: 23; experiment: SPR (Biacore), antibody captured on Protein A, soluble HER3-ECD as analyte, 37°C, 1:1 model
# Rhesus mature HER3-ECD [5] = molecular target: T2, Rhesus mature HER3-ECD; experiment: as above
# [6] = molecular target: T3, mouse mature HER3 ECD as shown in SEQ …; experiment: as above
binder,measurement,setting,value
B1,binding stoichiometry,[1],~2 moles of ligand per mole of antibody
same,binding stoichiometry,Rhesus mature HER3-ECD [2],~2 moles of ligand per mole of antibody
same,binding stoichiometry,[3],~2 moles of ligand per mole of antibody
same,Kd,[4],1.6 nM
same,Kd,Rhesus mature HER3-ECD [5],2.1 nM
same,Kd,[6],3 nM
